± gives the uncertainty stated by the source.
Experiment: protein stability index of a GFP-peptide fusion (yeast GPS) (PSI 1-4); higher = more stable; sorted into four equal gates, so the index is relative within each strain
Outline: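 Peptides tiling yeast proteins in 17-residue segments were fused downstream of GFP, with Cherry expressed from the same plasmid. As a pooled library in yeast, mid-log cultures grown in leucine-free medium were sorted into four equal gates by GFP/Cherry fluorescence ratio. Gate plasmids were PCR-amplified and Illumina-sequenced, and barcodes linked reads to strains. Each peptide received a protein stability index equal to the sum of each gate's read frequency times its gate number.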

Sequence | protein stability index (doa10∆) | protein stability index (pdr5∆) | protein stability index (san1∆) | protein stability index (ubr1∆)
KEAAAVAEGKSKQDASP [RPL8A] | 3.22 ± 0.085 | 3.29 ± 0.056 | 3.15 ± 0.044 | 3.04 ± 0.054
EIIFLGAQIVSKQIFTH [ARP9] | 1.22 ± 0.1 | 1.33 ± 0.075 | 1.14 ± 0.14 | 1.25 ± 0.036
LNLDSLLVDQKQLNSLR [SMD1] | 2.51 ± 0.051 | 2.79 ± 0.059 | 2.98 ± 0.067 | 2.51 ± 0.062
RFMKGRRSKQLINLAKT [RPC82] | 2.56 ± 0.1 | 2.78 ± 0.11 | 2.72 ± 0.074 | 2.62 ± 0.12
VRRGNRKRPVPKGATYG [RPL15A] | – | 3.27 ± 0.19 | 3.6 ± 0.18 | 3.44 ± 0.14
NIRGNTIRQIILPDSLN [SMD1] | 2.87 ± 0.15 | 2.94 ± 0.12 | 2.76 ± 0.16 | 3.27 ± 0.099
NSASNNGNLTSNQLISN [SWI1] | 1.96 ± 0.084 | 2.14 ± 0.078 | 2.45 ± 0.11 | 2.75 ± 0.056
QLIKVAVHNGGRKHVAA [RPL9A] | 2.47 ± 0.091 | 2.85 ± 0.087 | 2.66 ± 0.097 | 2.72 ± 0.03
MKMDKSPTESYSDIGGL [RPT2] | 3.21 ± 0.096 | 3.4 ± 0.096 | 3.38 ± 0.055 | 3.05 ± 0.059
ELTSFSSQPLEPLSDTE [DSN1] | 3.34 ± 0.11 | 3.12 ± 0.096 | 3.29 ± 0.065 | 3.21 ± 0.076
KLSQMILDKIFYGVLDQ [RPN6] | 2.83 ± 0.13 | 2.99 ± 0.12 | 2.92 ± 0.062 | 2.86 ± 0.11
QEAVNSLKGYKIENSVQ [CSI1] | 3.2 ± 0.13 | 3.29 ± 0.079 | 3.32 ± 0.051 | 3.39 ± 0.073
NTLEEFEHGRTPAEMSR [FAS2] | 2.8 ± 0.15 | 3.09 ± 0.16 | 3.19 ± 0.16 | 3.57 ± 0.15
GYCDDIAAMVAQKCGWT [SIR2] | 1.76 ± 0.11 | 1.9 ± 0.094 | 2.44 ± 0.16 | 1.74 ± 0.052
APKIHILDPSTEYCVGD [YMR129W/POM152] | 2.91 ± 0.13 | 3.35 ± 0.092 | 2.97 ± 0.087 | 2.79 ± 0.13
NHNQFECKGCDNKIDIY [RPB2] | 3.06 ± 0.044 | 3.19 ± 0.047 | 3.06 ± 0.034 | 3.1 ± 0.037
ESLTNSNMFDNSADVDM [YGL100W/SEH1] | 3.34 ± 0.085 | 3.57 ± 0.086 | 3.48 ± 0.056 | 3.36 ± 0.093
DLEKLLEMSTEDFVKLA [RPS15] | 3.11 ± 0.15 | 3.13 ± 0.12 | 3.44 ± 0.12 | 3.28 ± 0.08
ALQILNSGIIPGNRNAD [FAS2] | 2.38 ± 0.075 | 1.9 ± 0.068 | 2.72 ± 0.1 | 2.8 ± 0.052
EELILPNTKDAMSLYHS [PRP8] | 3.18 ± 0.055 | 3.38 ± 0.043 | 3.36 ± 0.04 | 2.8 ± 0.042
STVIEEFTLFMDIAERI [YGL172W/NUP49] | 2.37 ± 0.053 | 2.71 ± 0.053 | 2.47 ± 0.049 | 2.75 ± 0.038
CGDSIICNTLNIAKDLK [SMC1] | 1.78 ± 0.079 | 1.66 ± 0.067 | 1.42 ± 0.12 | 2.12 ± 0.075
NPPYSQCIVYPNCLFIL [SOH1] | 1.76 ± 0.038 | 2.06 ± 0.044 | 1.86 ± 0.06 | 1.86 ± 0.035
QLRKEIQLLDENVGTRL [MED11] | – | 3.09 ± 0.19 | 3.57 ± 0.11 | –
PEREVLVRELYQWRDLI [RRP6] | 2.91 ± 0.057 | 2.78 ± 0.07 | 2.67 ± 0.066 | 2.58 ± 0.049
TLTKISMLFKTSQKMTS [MCD1] | 1.92 ± 0.082 | 2.83 ± 0.16 | 2.45 ± 0.13 | 3.53 ± 0.19
STSKFESQYPIVTEQPS [SWP82] | 2.41 ± 0.041 | 2.58 ± 0.046 | 2.41 ± 0.054 | 2.5 ± 0.04

Sequence | protein stability index (doa10∆) | protein stability index (pdr5∆) | protein stability index (san1∆) | protein stability index (ubr1∆)
RQLTSLGSKKELGISLE [SNU114] | 3 ± 0.072 | 3.17 ± 0.079 | 3.14 ± 0.097 | 3.36 ± 0.062
GLSLAGLAPDARVLSNY [PRE5] | 1.23 ± 0.098 | 1.58 ± 0.1 | 1.27 ± 0.24 | 1.13 ± 0.1
GGSFGNREEFINKLVKS [RPL7A] | 2.98 ± 0.22 | – | 3.18 ± 0.17 | 2.93 ± 0.077
QRDFRKHGAVHLSTYLK [RPL21A] | 2.6 ± 0.046 | 2.41 ± 0.042 | 2.48 ± 0.054 | 2.71 ± 0.036
NTFKVLSKFFFFIFVFN [COB] | 1.66 ± 0.078 | 1.41 ± 0.1 | 1.32 ± 0.2 | 1.29 ± 0.077
SNTMYSVRLFSFLDPLN [YJL039C/NUP192] | 1.41 ± 0.048 | 1.48 ± 0.061 | 1.83 ± 0.063 | 1.69 ± 0.059
LKTKLLEEVEGSCTGKF [RPB7] | 3.53 ± 0.29 | 2.84 ± 0.22 | – | –
ALVFAALEHLKNLSLLA [SRP68] | 2.79 ± 0.12 | 2.75 ± 0.14 | 3.07 ± 0.065 | 2.92 ± 0.096
SLLERHIPRLIPKQLLD [YJL039C/NUP192] | 2.11 ± 0.096 | 1.38 ± 0.071 | 1.23 ± 0.095 | 1.45 ± 0.076
LISIHSRENNSEYMVFG [YJL039C/NUP192] | 3.03 ± 0.11 | 2.25 ± 0.13 | 2.77 ± 0.1 | 3.15 ± 0.19
QVRKKQIETINFLRLPA [YDL116W/NUP84] | 3.07 ± 0.11 | 2.89 ± 0.097 | 2.86 ± 0.07 | 2.81 ± 0.11
SLTRDFEQCCKEKKELQ [YIL149C/MLP2] | 2.87 ± 0.089 | 3.01 ± 0.089 | 3 ± 0.1 | 3.14 ± 0.11
NEDDALIYGISDEERDD [AAR2] | 3.29 ± 0.12 | 3.53 ± 0.13 | 3.62 ± 0.066 | 3.2 ± 0.12
GKILTIKQQQQQQQQQN [YML103C/NUP188] | 2.77 ± 0.049 | 3.13 ± 0.053 | 3.12 ± 0.048 | 2.96 ± 0.049
QVLKCKESWDPNTTKTK [YGR119C/NUP57] | 3.52 ± 0.21 | 3.41 ± 0.076 | 3.63 ± 0.089 | 3.55 ± 0.15
DSADVPAFSNSNGFNNV [YMR153W/NUP53] | 3.1 ± 0.062 | 3.2 ± 0.067 | 3.22 ± 0.041 | 3.23 ± 0.048
IPAWFLNRQNDITDGKD [RPS18A] | 2.91 ± 0.17 | 3.22 ± 0.15 | 2.76 ± 0.2 | 2.87 ± 0.09
PNISHSNIDYQTLLANS [SNF2] | 3.33 ± 0.17 | 2.7 ± 0.18 | 2.58 ± 0.22 | 2.82 ± 0.11
SSTIDAPAFHTSGKVEL [SRB8] | 2.9 ± 0.28 | – | 2.94 ± 0.18 | 2.87 ± 0.082
RSQDQENPAFLPGTNNN [SEC65] | 2.79 ± 0.082 | 2.75 ± 0.079 | 2.19 ± 0.063 | 2.8 ± 0.064
VNDSVISAPSMEDEILS [BRN1] | 2.05 ± 0.1 | 2.29 ± 0.089 | 2.41 ± 0.11 | 2.86 ± 0.073
VVDHHVENELLQVDVDI [RRP42] | 3.4 ± 0.13 | 3.25 ± 0.21 | 2.83 ± 0.17 | –
TLSNAERAKNVNGLLQV [GAL11] | 3.22 ± 0.14 | 3.23 ± 0.1 | 3.08 ± 0.26 | 3 ± 0.098
LKENNAILQKSLKNVTE [YIL149C/MLP2] | 2.67 ± 0.049 | 2.57 ± 0.057 | 2.89 ± 0.038 | 2.75 ± 0.044
FVIHIQEKNFQTGIFVY [RPB5] | 1.98 ± 0.062 | 1.58 ± 0.05 | 1.54 ± 0.16 | 1.88 ± 0.081
KYHYKEEWLNTKDPDEQ [CSN9] | 2.86 ± 0.086 | 3.05 ± 0.099 | 3.05 ± 0.057 | 3.05 ± 0.093

Source: the supplement of paper PMC9732359
